Data published in patent publication US6984774.

Tested on: Ac transposase (Zea mays)
Test: cell_activity
Details: in Arabidopsis; GUS recombination stimulated over no-Ac control; Ds excision footprint confirmed by PCR and sequencing; binding not measured directly

Ds element in GU-Ds-US construct
activity: > 1000 fold
